In the supplement of paper PMC7877785:
± gives the uncertainty stated by the source.

Assay: self-splicing fitness, log relative to wild type (ln ratio); higher = more splicing; Tetrahymena group I intron in knt gene, E. coli kanamycin selection, DiMSum; sequences stand for … in CUCUCU…GGAGGGAAAAGUUAUCAGGCAUGCACCUGGUAGCUAGUCUUUAAACCAAUAGAUUGCAUCGGUUUAAAAGGCAAGACCGUCAAAUUGCGGGAAAGGGGUCAACAGCCGUUCAGUACCAAGUCUCAGGGGAAACUUUGAGAUGGCCUUGCAAAGGGUAUGGUAAUAAGCUGACGGACAUGGUCCUAACCACGCAGCCAAGUCCUAAGUCAACAGAUCUUCUGUUGAUAUGGAUGCAGUUCACAGACUAAAUGUCGGUCGGGGAAGAUGUAUUCUUCUCAUAAGAUAUAGUCGGACCUCUCCUUAAUGGGAGCUAGCGGAUGAAGUGAUGCAACACUGGAGCCGCUGGGAACUAAUUUGUAUGCGAAAGUAUAUUGAUUAGUUUUGGAGUACUCGUGGUCG
Outline: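 Fitness was computed with DiMSum as the error-weighted combination of replicate fold changes, kanamycin versus none, each normalised to wild type. The library randomised all eight intron nucleotides of the P1ex region, with the intron placed in the knt kanamycin-resistance gene on pET-22b(+) in E. coli BL21(DE3). Six replicate transformations were grown overnight at 37°C or 30°C on LB agar with or without 25 μg/mL kanamycin, plus 100 μg/mL carbenicillin, 50 μM IPTG and 0.2% rhamnose. Pooled colonies were amplicon-sequenced on an Illumina HiSeq 2500.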

Row | Sequence | self-splicing fitness (ln) (30 °C) | self-splicing fitness (ln) (37 °C)
1 | CAUCAGCAAUAUUACGCCCG | -0.306 ± 0.12 | 0.0609 ± 0.15
2 | CCCAAGCAAUAUUACGGCCG | -2.73 ± 0.19 | -2.43 ± 0.21
3 | CAAAAGCAAUAUUACGUCUU | -2.5 ± 0.082 | -1.24 ± 0.08
4 | AGCUAGCAAUAUUACGACUG | -0.901 ± 0.072 | -0.941 ± 0.12
5 | AACAAGCAAUAUUACGAAAC | -3.9 ± 0.23 | -2.33 ± 0.27
6 | GAUAAGCAAUAUUACGAUCG | -0.76 ± 0.12 | -0.691 ± 0.14
7 | AACCAGCAAUAUUACGACUC | -0.597 ± 0.053 | -0.327 ± 0.066
8 | ACGCAGCAAUAUUACGCUGC | -3.38 ± 0.43 | -3.02 ± 0.29
9 | UUCCAGCAAUAUUACGAGAA | -1.79 ± 0.17 | -0.442 ± 0.16
10 | ACACAGCAAUAUUACGUAGU | -2.48 ± 0.077 | -1.71 ± 0.088
11 | GCUUAGCAAUAUUACGUGCC | -3.64 ± 0.35 | -0.354 ± 0.14
12 | CCCGAGCAAUAUUACGUUGG | -4.15 ± 0.18 | -2.09 ± 0.14
13 | CAAGAGCAAUAUUACGCGCA | -3.48 ± 0.37 | -2.09 ± 0.25
14 | CGGCAGCAAUAUUACGUACC | -2.07 ± 0.19 | -1.61 ± 0.25
15 | ACCAAGCAAUAUUACGCCAA | -1.97 ± 0.18 | -2.71 ± 0.23
16 | AAAAAGCAAUAUUACGUACG | -1.1 ± 0.055 | -0.101 ± 0.076
17 | AAUUAGCAAUAUUACGGUGU | -2.48 ± 0.091 | -1.32 ± 0.098
18 | GGCCAGCAAUAUUACGGCUA | -0.439 ± 0.097 | -0.0906 ± 0.1
19 | GAAAAGCAAUAUUACGACCC | 0.23 ± 0.13 | -0.182 ± 0.18

Row | Sequence | self-splicing fitness (ln) (30 °C) | self-splicing fitness (ln) (37 °C)
20 | AACAAGCAAUAUUACGCAUU | -2.01 ± 0.069 | -1.32 ± 0.091
21 | UAAUAGCAAUAUUACGCCUC | -2.77 ± 0.35 | -1.53 ± 0.38
22 | GCUAAGCAAUAUUACGCGAC | -2.11 ± 0.14 | -1.54 ± 0.17
23 | UUCAAGCAAUAUUACGACGG | -1.5 ± 0.11 | -0.143 ± 0.12
24 | CGUCAGCAAUAUUACGUGGG | -2.31 ± 0.093 | -1.7 ± 0.1
25 | UGAUAGCAAUAUUACGCAUC | – | -1.53 ± 0.49
26 | AAAAAGCAAUAUUACGCCCA | -0.382 ± 0.12 | -0.253 ± 0.16
27 | ACCCAGCAAUAUUACGAACG | -3.06 ± 0.14 | -1.4 ± 0.14
28 | UGCCAGCAAUAUUACGCUUA | -0.602 ± 0.063 | 0.791 ± 0.084
29 | AGGUAGCAAUAUUACGCAUG | -2.022 ± 0.017 | -1.22 ± 0.034
30 | CUACAGCAAUAUUACGCAGG | -2.62 ± 0.13 | -3.06 ± 0.24
31 | AGCGAGCAAUAUUACGUGUC | -3.1 ± 0.24 | -2.85 ± 0.22
32 | CUUCAGCAAUAUUACGUGCG | -2.43 ± 0.09 | -0.814 ± 0.099
33 | GGUAAGCAAUAUUACGCACU | – | -2.23 ± 0.2
34 | GGCGAGCAAUAUUACGAGAU | -3.61 ± 0.32 | -2.37 ± 0.49
35 | UAUAAGCAAUAUUACGGUCU | -1.22 ± 0.13 | -1.05 ± 0.17
36 | UAUAAGCAAUAUUACGUUGG | -2.78 ± 0.13 | -2.23 ± 0.17
37 | GAUAAGCAAUAUUACGUGUG | -1.96 ± 0.079 | -0.282 ± 0.094
38 | CUAGAGCAAUAUUACGCUCU | -2.43 ± 0.28 | -2.8 ± 0.43
